The values below come from patent US20160229920A1 (University of Texas, published 2016).

The target of experiment [1] is T1, HER3 on the plasma membrane of SK-BR-3 and BT-474 breast cancer cells (human, UniProt P21860 20-1342).
T1 construct: whole, on cells; also called cell surface HER3
The experiment in a line: fluorescence microscopy of SK-BR-3 cells treated with 50 nM antibody for 15 min at 37 C and chased 45 min; detection with Alexa 555 anti-human IgG, co-stain LAMP-1; the cells carry HER2 and HER3 and the staining of the bispecific is not separated between the two. On the procedure:
Cells were fixed, permeabilized and stained for LAMP-1. […] Scale bars=2 μm.
For fixation, cells were treated with 1.7% (w/v) paraformaldehyde for 10 minutes at 37° C. and then permeabilized with 0.05% (v/v) saponin for 10 minutes at room temperature in PBS. […] Cells were washed twice with PBS between each incubation step and were stored at 4° C. in 1% BSA/PBS.

Experiment [2] has as its target T1, HER3 on the plasma membrane of SK-BR-3 …. The experiment in a line: fluorescence microscopy of SK-BR-3 cells pulsed with 50 nM antibody for 5 min at 37 C and chased 0, 10 or 20 min; detection with Alexa 555 anti-human IgG, co-stain EEA-1 [Continued].

B1: bispecific trastuzumab with anti-HER3 Ab6 scFv (TAb6) (bispecific antibody)
heavy: not shown
light: DIELTQSPSSLSASVGDRVTITCRASQDVNTAVAWYQQKPGKAPKLLIYSASFLYSGVPSRFSGSRSGTDFTLTISSLQPEDFATYYCQQHYTTPPTFGQGTKLEIKRTVAAPSVFIFPPSDEQLKSGTASVVCLLNNFYPREAKVQWKVDNALQSGNSQESVTEQDSKDSTYSLSSTLTLSKADYEKHKVYACEVTHQGLSSPVTKSFNRGEC
notes: Morrison format, expressed in CHO cells; also called bispecific anti-HER2/HER3 antibody
Regarding B1, the binding result in experiment [1] is “binds”.

B2: tetrameric anti-HER3 (Ab6tet) (antibody)
heavy: not shown
light: DIELTQPASVSGSPGQSITISCTGTSSDVGSYNVVSWYQQHPGKAPKLIIYEVSQRPSGVSNRFSGSKSGNTASLTISGLQTEDEADYYCCSYAGSSIFVIFGGGTKLEIKRTVAAPSVFIFPPSDEQLKSGTASVVCLLNNFYPREAKVQWKVDNALQSGNSQESVTEQDSKDSTYSLSSTLTLSKADYEKHKVYACEVTHQGLSSPVTKSFNRGEC
notes: Residues 1-19 are the leader; also called tetravalent anti-HER3 antibody; multivalent anti-HER3 antibody
Consider B2, for which the binding result in experiment [2] is recorded as “binds”.
